The target of assay [1] is recombinant spike ectodomain of SARS-CoV-2 Omicron subvariant BA.5 (SARS-CoV-2). In words: cryo-EM structure; complexes of BA.5 or JN.1 spike ectodomain with Nanosota-9-His (0.8 uM); three Nanosota-9 on each trimeric spike, two of them crosslinking two RBDs (2:2 mode).
The target in assay [2] is recombinant spike ectodomain of SARS-CoV-2 Omicron subvariant JN.1 (SARS-CoV-2). The description is as above.

One may read the stoichiometry N as a count of units in the complex or per binding partner.

Take “recombinant spike ectodomain of SARS-CoV-2 Omicron subvariant BA.5 (domain or fragment)”: the stoichiometry N in assay [1] worked out at 3.
Take “recombinant spike ectodomain of SARS-CoV-2 Omicron subvariant JN.1 (domain or fragment)”: the stoichiometry N in assay [2] was found to be 3.

These data come from PMC11630572.
